In PMC8584343, “Probing the Structural Dynamics of the Activation Gate of KcsA Using Homo-FRET Measurements” (International Journal of Molecular Sciences, 2021):

B1: C-terminal truncated (Δ125) TMR-labeled G116C W67 KcsA (domain or fragment, S. lividans, UniProt P0A334 1-124, looked up)
chain: MPPMLSGLLARLVKLLLGRHGSALHFRAAGAATVLLVIVLLAGSYLAVLAERGAPGAQLITYPRALWFSVETATTVGYGDLYPVTLFGRLVAVVVMVAGITSFGLVTAALATFFVCREQERRGH
modifications: tetramethylrhodamine-5-maleimide (TMR) conjugated to cysteine 116; D:P = 0.60
notes: KcsA potassium channel from S. lividans after removal of the C-terminal domain (amino acids 125–160) by chymotrypsin; W67 background with G116C; The limit 124 follows from the stated removal of amino acids 125–160; If the His tag stood at the C-terminus it would be lost with the cleaved fragment; also called truncated protein; proteolytically cleaved TMR-labeled G116C W67 KcsA
B2: TMR-labeled G116C W26, 68, 87, 113F KcsA (full-length) (natural protein, S. lividans, UniProt P0A334 1-160, looked up)
chain: MPPMLSGLLARLVKLLLGRHGSALHFRAAGAATVLLVIVLLAGSYLAVLAERGAPGAQLITYPRALWFSVETATTVGYGDLYPVTLFGRLVAVVVMVAGITSFGLVTAALATFFVCREQERRGHFVRHSEKAAEEAYTRTTRALHERFDRLERMLDDNRR
modifications: tetramethylrhodamine-5-maleimide (TMR) conjugated to cysteine 116; final dye-to-protein molar ratio D:P 0.05 to 0.60, so not every subunit carries a dye
notes: KcsA potassium channel from S. lividans, full-length subunit, with four of the five Trp mutated to Phe (W67 left) and G116C for labelling; Homotetrameric channel; Plasmids pQE-60 and pQE-1 are named for G116C W67 and G116C WT; also called TMR-labeled G116C W67 KcsA; TMR conjugated G116C W67 KcsA; source: E. coli M15 (pRep4), purified (IMAC), labelled with tetramethylrhodamine-5-maleimide, …

Experiments:
[1] = target: the molecule itself; experiment: FRET or BRET; homo-FRET among TMR dyes on C116 of different subunits, read by steady-state and time-resolved fluorescence anisotropy; detergent-solubilised protein, 6 µM (monomer based), 5 mM DDM, 200 mM KCl (also RbCl or NaCl), pH 3.5-7.0, 25 °C; D:P 0.05 to 0.60
[2] = target: the molecule itself; experiment: SDS-PAGE; oligomeric status of the purified protein checked by SDS-PAGE (13.5%)

Protein	binding result [1]	stoichiometry N [2]
B1	binds	–
B2	–	4
